From US6946588B2, “Nucleic acid encoding a modified threonine deaminase and methods of use” (Monsanto Technology LLC, priority 1996, dated 2005) come the findings set out here.

Residue numbers refer to the chain shown, from its start. Numbers in names are those of the source. Read-outs that look alike come from different tables or passages of the source.

For series [1], the system named is threonine deaminase. Description: Threonine deaminase activity in extracts of transformed E. coli DH5α (in vivo analysis of cloned ilvA genes). It is filed as biochemical. The following applies: 0 mM isoleucine, 10 mM threonine. The source says:
E. coli DH5α cells were transformed with pJM9238 (Kidwell et al., 1995) containing the PHB operon of A. eutrophus by CaCl2/heat shock treatment The PHB operon was under the inducible control of the ptac promoter. E. coli containing pJM9236 were used as a background control with respect to threonine deaminase activity.
E. coli DH5α cells were also cotransformed by CaCl2/heat shock treatment with pJM9238 and pMON25660 (FIG. 5) containing the wild-type E. coli threonine deaminase, under ptrc inducible control.
In a third experiment, E. coli DH5α cells were cotransformed with pJM9238 and pMON25683 (FIG. 11) containing the mutant E. coli ilvA466 (L481F) threonine deaminase, under ptrc inducible control.
(§1) Transformed cells were grown on M9 minimal salts plus 0.2% gluconate and 25 mM L-threonine. At early log phase, the cells were induced with IPTG to induce expression of all four enzymes (i.e., PhbA, PhbB, PhbC, and IlvA or IlvA466). […] The level of α-ketobutyrate was determined by reverse-phase HPLC isolation of the dinitrophenylhydrazine derivative of the α-ketoacid according to Qureshi et al., (1982). Quantitation was based on peak integration comparisons to a standard curve.

Series [2] deals with E. coli DH5α cells. The series can be described thus: Intracellular α-ketobutyrate in transformed E. coli DH5α (HPLC of dinitrophenylhydrazine derivative). Type of series: cell-based. As to conditions: for [α-ketobutyrate]: 1 ml extract from approximately 50 mg cells, M9 + 0.2% gluconate + 25 mM L-threonine; for α-ketobutyrate level relative to cells containing no overexpressed threonine deaminase: transformed E. coli DH5α. How it is done:
as §1

The test system of series [3] is soybean callus. Description: Expression and activity of E. coli IlvA in stably transformed soybean callus. Type of series: cell-based. As to conditions: soybean calli 518-4, 518-15, 518-16, 518-17 transformed with pMON25668. The source says: As shown above, the E. coli IlvA proteins can be functionally expressed in a plant transient expression system. In order to test the expression of a biosynthetic threonine deaminase in a stably transformed plant tissue, non-differentiating callus derived from soybean hypocotyl tissue was transformed with a plasmid containing the E. coli wild-type ilvA threonine deaminase gene using Agrobacterium tumefaciens ABI (Koncz and Schell, 1986).
Soybean callus tissue was transformed with binary Ti plasmid pMON25668 (FIG. 17). Plasmid pMON25668 contains the e35S-expressed, plastid-targeted (ARABSSU1A) E. coli wild-type ilvA threonine deaminase gene, the e35S-expressed, plastid-targeted (ARABSSU1A) A. eutrophus phbA (β-ketothiolase) gene, and the e35s-expressed neomycin phosphotransferase type II (NptII) gene for kanamycin resistance. […] contains two border sequences for T-DNA transfer into the plant chromosome. The right border sequence is the only border required for T-DNA transfer into the plant; however, including the left border sequence terminates T-DNA integration at that point, thereby limiting the unnecessary incorporation of “extra” DNA sequences into the plant chromosome. pMON25668 also contains the minimun sequence of ori-322 for replication and maintenance in E. coli as well as ori-V of the broad host origin RK2 for replication in Agrobacterium. […]

For series [4], the system named is E. coli biosynthetic threonine deaminase. As to conditions: for Threonine Deaminase Specific Activity / % activity relative to the results with 0 mM isoleucine: 10 mM threonine; for Hill Coefficient (n) / Km: fit to Hill equation; for Km: read-out: Km Threonine. The procedure: Kinetic analysis of the wild-type and mutant threonine deaminases was performed by determining threonine turnover catalyzed by these threonine deaminases as assayed by the method of Burns (1971). Specifically, α-keto-butyrate production was monitored by coupling to L-lactic dehydrogenase (LDH)-catalyzed reduction of the α-ketoacid in the presence of NADH to form (L)-2-hydroxybutyrate and NAD+. The disappearance of NADH absorbance at 340 nm provides a measure of the threonine deaminase activity. Final reaction conditions were 100 mM KPi, pH 7.8, 0.20 mM NADH, 10 units/mL LDH (defined as LDH turnover of α-ketobutyrate, not pyruvate), and variable threonine. R. Rubrum was grown according to Brandl et al., 1989. The growth and induction of E. coli cells overexpressing the mutant and wild-type biosynthetic threonine deaminases is described above. Cell extracts of R. Rubrum and E. coli were prepared by sonicating pelleted cells (≈0.5 g from 100 ml of culture) in 2 ml of 100 mM KPi, pH 7.0, containing 5% (v/v) glycerol. After centrifugation to remove cellular debris, protein concentrations were determined by the method of Bradford (1976), and threonine deaminase activity was measured.
The kinetic parameters Km and Vmax, and the level of positive cooperativity, i.e., the deviation from normal saturation kinetics where at low substrate concentration the substrate turnover rate is less than a non-cooperative system, were determined. These values were found by fitting the rate data to the Hill equation (Equation 1), which incorporates the coefficient n into the normal Michaelis-Menten equation (n=1 for a non-cooperative system).
In addition to the kinetic parameters, the degree of inhibition of threonine deaminase by isoleucine was also measured at fixed levels of threonine.

Substrate in series [5]: CC(C)(COP(=O)(O)OP(=O)(O)OC[C@H]1O[C@@H](n2cnc3c(N)ncnc32)[C@H](O)[C@@H]1OP(=O)(O)O)[C@@H](O)C(=O)NCCC(=O)NCCS
The series can be described thus: purified protein, by the assay type. The following applies: other: thiolysis, 25° C., β-ketocaproyl-CoA fixed at 60 μM.

Broadly, the Km is the substrate concentration at which the rate is half of its maximum.

B1: E. coli wild-type: wild-type E. coli biosynthetic threonine deaminase encoded by the ilvA gene (SEQ ID NO:1) (protein, listed as Escherichia coli)
chain: MADSQPLSGAPEGAEYLRAVLRAPVYEAAQVTPLQKMEKLSSRLDNVILVKREDRQPVHSFKLRGAYAMMAGLTEEQKAHGVITASAGNHAQGVAFSSARLGVKALIVMPTATADIKVDRLRGFGGEVLLHGANFDEAKRKAIELSQQQGFTWVPPFDHPMVIAGQGTLALELLQQDAHLDRVFVPVGGGGLAACVAVLIKQLMPQIKVIAVEAEDSACLKAALDAGHPVDLPRVGLFAEGVAVKRIGDETFRLCQEYLDDIITVDSDAICAAMKDLFEDVRAVAEPSGALALAGMKKYIALHNIRGERLAHILSGANVNFHGLRYVSERCELVEQREALLAVTIPEEKGSFLKFCQLLGGRSVTEFNYRFADAKNACIFVGVRLSRGLEERKEILQMLNDGGYSVVDLSDDEMAKLHVRYMVGGRPSHPLQERLYSFEFPESPGALLRFLNTLGTYWNISLFHYRSHGTDYGRVLAAFELGDHEPDFETRLNELGYDCHDETNNPAFRFFLAG
With B1, the “Threonine Deaminase Specific Activity” value in series [1] was found to be 4.20 u/mg. In addition, in series [2], the “[α-ketobutyrate]” value came out at 41.8 µM and the “α-ketobutyrate level relative to cells containing no overexpressed threonine deaminase” value is “about a three-fold increase”. Also, in series [3], the “expression (Western blot) and enzymatic activity in transformed calli” value is “can be expressed and maintain enzymatic activity”. In series [4] (0 mM isoleucine), the “Threonine Deaminase Specific Activity” value came out at 16.7 u/mg. For the same molecule, in series [4] (1.0 mM isoleucine), the “% activity relative to the results with 0 mM isoleucine” value (“% activity relative to the results” below) was under 2% and the “Threonine Deaminase Specific Activity” value was found to be 0.3 u/mg. Moreover, in series [4] (10.0 mM isoleucine), the “% activity relative to the results” value was under 2% and the “Threonine Deaminase Specific Activity” value is 0.3 u/mg. Further, in series [4], the “Hill Coefficient (n)” value is listed as 1.5 ± 0.2 and the Km was found to be 5 ± 1 mM.

B2: E. coli L481F (protein)
chain: B1 chain with R120A, L121V, R140A, C195G, V334G, L481F
Regarding B2, the “Threonine Deaminase Specific Activity” value in series [1] was determined as 0.59 u/mg. For the same molecule, in series [2], the “[α-ketobutyrate]” value is 579 µM and the “α-ketobutyrate level relative to cells containing no overexpressed threonine deaminase” value is listed as “greater than 40 times”. Further, the “Threonine Deaminase Specific Activity” value in series [4] (0 mM isoleucine) was determined as 20.3 u/mg. Also, in series [4] (1.0 mM isoleucine), the “% activity relative to the results” value was determined as 56% and the “Threonine Deaminase Specific Activity” value came to 11.3 u/mg. In series [4] (10.0 mM isoleucine), the “% activity relative to the results” value is recorded as under 2% and the “Threonine Deaminase Specific Activity” value is given as 0.3 u/mg. In series [4], the “Hill Coefficient (n)” value came out at 1.22 ± 0.01 and the Km worked out at 3.08 ± 0.03 mM.

B3: BktB β-ketothiolase (Cupriavidus necator H16) (protein)
chain: TREVVVVSGVRTAIGTFGGSLKDVAPAELGALVVREALARAQVSGDDVGHVVFGNVIQTEPRDMYLGRVAAVNGGVTINAPALTVNRLCGSGLQAIVSAAQTILLGDTDVAIGGGAESMSRAPYLAPAARWGARMGDAGLVDMMLGALHDPFHRIHMGVTAENVAKEYDISRAQQDEAALESHRRASAAIKAGYFKDQIVPVVSKGRKGDVTFDTDEHVRHDATIDDMTKLRPVFVKENGTVTAGNASGLNDAAAAVVMMERAEAERRGLKPLARLVSYGHAGVDPKAMGIGPVPATKIALERAGLQVSDLDVIEANEAFAAQACAVTKALGLDPAKVNPNGSGISLGHPIGATGALITVKALHELNRVQGRYALVTMCIGGGQGIAAIFERI
Consider B3, for which the Km in series [5] worked out at 0.053 ± 0.006 mM.
